How the values were obtained:
human GLP1R [1] = target: T1, human GLP1R (Homo sapiens, UniProt P43220); test: High-fat diet induced obesity model (Example 3), GLP1R humanized homozygous mice; assay type: in vivo, mouse; conditions: G4 GLP1R humanized
T1 construct: 61-1452; 1-463; expressed in transfected cells; host or cells: GLP1R gene humanized homozygous mice (C57BL/6 ES cells); The human CDS is inserted into mouse exon 1 at the endogenous Glp1r locus, under mouse regulatory elements
Method: (§1) Twenty 7-week-old male wild-type C57BL/6 mice (WT) and twenty GLP1R humanized homozygous mice (I/H) were selected. All mice were given a high-fat diet for 12 weeks to induce obesity and high blood sugar.
(§2) On the 13th week, the mice were grouped and administered either Dulaglutide or PBS according to Table 5. The day of grouping was recorded as DO, the next day was recorded as D1, and so on for calculation. When a mouse lost more than 20% of its body weight, it was euthanized to end the experiment. The administration group was given 1 mg/kg Dulaglutide by subcutaneous injection (sc), and the control group was given the same dose of control PBS, once every two days, with a total of 5 administrations. The test protocol is as follows: the random blood glucose (RBG) concentration and body weight were measured before each administration; the mice were fasted after the second administration, and the glucose tolerance test ([…]) was carried out the next day (protocol: after the fasting blood glucose was tested, 2 g/kg D-glucose was injected intraperitoneally, and blood glucose was measured at 15 min, 30 min, 60 min and 120 min after injection; the glucose solution was prepared at the ratio of 20% mass fraction, the administration dose was 10 ul/g body weight, and the solvent was physiological saline). After the fourth administration, the mice were fasted, and the fasting blood glucose was measured on the second day; blood was collected from the canthus within 48 hours after the last administration, and the supernatant was obtained by centrifugation. The levels of serum glucagon and insulin were determined by ELISA.

mouse GLP1R [2] = target: T2, mouse GLP1R (Mus musculus, UniProt O35659); conditions: background statement, no test described; cited from earlier work
T2 sequence (O35659 22-463): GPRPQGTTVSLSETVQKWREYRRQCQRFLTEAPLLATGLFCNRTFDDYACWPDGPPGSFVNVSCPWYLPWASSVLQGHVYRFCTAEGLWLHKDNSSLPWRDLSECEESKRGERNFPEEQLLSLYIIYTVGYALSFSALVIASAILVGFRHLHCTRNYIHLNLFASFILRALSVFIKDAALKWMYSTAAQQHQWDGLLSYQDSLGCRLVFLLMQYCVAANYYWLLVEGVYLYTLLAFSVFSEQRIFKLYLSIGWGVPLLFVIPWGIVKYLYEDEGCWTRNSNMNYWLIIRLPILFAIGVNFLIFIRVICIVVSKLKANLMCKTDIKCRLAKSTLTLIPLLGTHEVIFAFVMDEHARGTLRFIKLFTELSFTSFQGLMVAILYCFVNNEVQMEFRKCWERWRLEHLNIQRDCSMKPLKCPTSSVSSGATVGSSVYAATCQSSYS

human GLP1R [3] = target: T1, human GLP1R; conditions: background statement, no test described; cited from earlier work
mouse GLP1R [4] = target: T2, mouse GLP1R; test: In vivo drug efficacy experiment (Example 2), wild-type C57BL/6 mice; design: Ten 7-week-old male wild-type C57BL/6 mice (WT); endogenous in cells; host or cells: wild-type C57BL/6 mice (whole animal, in vivo)
Method: (§3) Ten 7-week-old male wild-type C57BL/6 mice (WT) and ten GLP1R gene humanized homozygous mice (H/H) were selected, and randomly divided (according to body weight) into control group (G1, G3) and administration Group (G2, G4). The control group was injected subcutaneously (s.c.) phosphate buffered saline (PBS). The administration group was injected subcutaneously with 10 mg/kg GLP1R agonist Dulaglutide, administered once every two days, with a total of 5 administrations. Before each administration, the body weight and non-fasting blood glucose concentration of the mice were measured. After the second and fourth doses, the mice were fasted overnight, and the glucose tolerance test (IPGTT) was used to evaluate the tolerance of the mice to glucose by intraperitoneal injection of 2 g/kg glucose D-Glucose. Blood was collected to determine the blood glucose value at 15 min, 30 min, 60 min, 120 min after injection, and the area under the curve (AUC) was calculated.

human GLP1R [5] = target: T1, human GLP1R; test: In vivo drug efficacy experiment (Example 2), GLP1R gene humanized homozygous mice; design: species or system mouse
Method: as §3

mouse GLP1R [6] = target: T2, mouse GLP1R; test: High-fat diet induced obesity model (Example 3), wild-type C57BL/6 mice; assay type: in vivo; design: Ten 7-week-old male wild-type C57BL/6 mice (WT); endogenous in cells; host or cells: wild-type C57BL/6 mice (whole animal, in vivo)
Method: as §1, §2

T1 sequence (P43220 24-463): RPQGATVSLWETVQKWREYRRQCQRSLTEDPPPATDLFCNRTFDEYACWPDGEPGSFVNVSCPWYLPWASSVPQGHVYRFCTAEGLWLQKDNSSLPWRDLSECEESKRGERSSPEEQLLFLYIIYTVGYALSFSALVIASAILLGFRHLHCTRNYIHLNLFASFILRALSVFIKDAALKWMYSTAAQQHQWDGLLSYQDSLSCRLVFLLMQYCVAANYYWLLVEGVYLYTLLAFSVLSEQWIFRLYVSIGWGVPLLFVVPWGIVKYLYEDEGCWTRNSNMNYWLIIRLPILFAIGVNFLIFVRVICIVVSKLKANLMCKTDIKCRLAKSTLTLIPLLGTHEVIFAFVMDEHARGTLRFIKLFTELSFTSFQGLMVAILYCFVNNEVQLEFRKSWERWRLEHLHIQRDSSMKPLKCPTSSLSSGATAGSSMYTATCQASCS

blood glucose (non-fasting) (human GLP1R [1]; high-fat diet, 1 mg/kg s.c. Q2d*5, FIG. 25): significantly reduced | food intake in the 24 hours after the first administration (human GLP1R [1]; high-fat diet, 1 mg/kg s.c., vs control group, FIG. 24B): significantly lower | level of glucagon-like peptide-1 (human GLP1R [1]; high-fat diet, 24 hours after the drug administration, FIG. 29): significantly increased | insulin level (human GLP1R [1]; high-fat diet, Day 10, 15 min time point, vs control group, FIG. 27): tendency to increase | fasting blood glucose (mouse GLP1R [4]; G2 WT vs PBS control G1, fasted overnight, s.c. Q2d x 5, FIG. 13): reduced | non-fasting blood glucose (mouse GLP1R [4]; G2 WT vs PBS control G1, s.c. Q2d x 5, 10 mg/kg / 1 mg/kg (Table 5), FIG. 12): reduced | area under the curve (AUC) of IPGTT (mouse GLP1R [4]; WT mice, 2 g/kg D-Glucose i.p., blood glucose 15-120 min, P≤0.05, FIG. 15): significant downward trend | fasting blood glucose (human GLP1R [5]; G4 H/H vs PBS control G3, fasted overnight, s.c. Q2d x 5, FIG. 13): reduced | non-fasting blood glucose (human GLP1R [5]; G4 H/H vs PBS control G3, s.c. Q2d x 5, 10 mg/kg / 1 mg/kg (Table 5), FIG. 12): reduced | area under the curve (AUC) of IPGTT (human GLP1R [5]; H/H mice, 2 g/kg D-Glucose i.p., blood glucose 15-120 min, P≤0.05, FIG. 15): significant downward trend | blood glucose (non-fasting) (mouse GLP1R [6]; G2 C57BL/6, high-fat diet, 1 mg/kg s.c. Q2d*5, FIG. 25): significantly reduced | food intake in the 24 hours after the first administration (mouse GLP1R [6]; G2 C57BL/6, high-fat diet, 1 mg/kg s.c., vs control group, FIG. 24B): significantly lower | plasma levels of glucagon (mouse GLP1R [6]; G2 C57BL/6, high-fat diet, 24 hours after the drug administration, FIG. 28): decreased | level of glucagon-like peptide-1 (mouse GLP1R [6]; G2 C57BL/6, high-fat diet, 24 hours after the drug administration, FIG. 29): significantly increased | insulin level (mouse GLP1R [6]; G2 C57BL/6, high-fat diet, Day 10, 15 min time point, vs control group, FIG. 27): tendency to increase
Substance: Dulaglutide
body weight (human GLP1R [1]; high-fat diet 12 weeks, 1 mg/kg s.c. Q2d*5, vs PBS control, FIG. 23): decreased more significantly | plasma levels of glucagon (human GLP1R [1]; high-fat diet, 24 hours after the drug administration, FIG. 28): decreased, and the decrease was more obvious | glucose tolerance (glucose tolerance test) (human GLP1R [1]; high-fat diet, after second administration, fasted, 2 g/kg D-glucose i.p., FIG. 26): significantly improve | affinity for mouse GLP1R (mouse GLP1R [2]): has affinity | affinity for human GLP1R (human GLP1R [3]): has affinity | body weight during the experiment (mouse GLP1R [4]; G2, WT C57BL/6 mice, s.c. Q2d x 5, 10 mg/kg / 1 mg/kg (Table 5), FIG. 11): remained stable and did not change significantly | body weight during the experiment (human GLP1R [5]; G4, H/H mice, s.c. Q2d x 5, 10 mg/kg / 1 mg/kg (Table 5), FIG. 11): remained stable and did not change significantly | body weight (mouse GLP1R [6]; G2 C57BL/6, high-fat diet 12 weeks, 1 mg/kg s.c. Q2d*5, vs PBS control, FIG. 23): decreased more significantly | glucose tolerance (glucose tolerance test) (mouse GLP1R [6]; G2 C57BL/6, high-fat diet, after second administration, fasted, 2 g/kg D-glucose i.p., FIG. 26): significantly improve
